Results as given in article PMC6426935.

What was measured:
[1] = target: recombinant Der f 21 with N-terminal 6x-His-tag (Dermatophagoides farinae) (UniProt B2GM84); assay: SEC-MALS; Superdex S75 increase, 20 mM Tris pH 7.9, 50 mM NaCl; 100 uL loaded at 5 mg/mL
[2] = target: recombinant Der f 21 with the His-tag cleaved (Dermatophagoides farinae) (UniProt B2GM84); assay: static light scattering; crDer f 21 at 0.25, 1.00 and 1.50 mg/mL

“recombinant Der f 21 with N-terminal 6x-His-tag (from UniProt B2GM84 25-136) (natural protein)” gave a stoichiometry N [1] of 2.
Substance “recombinant Der f 21 with the His-tag cleaved (from UniProt B2GM84 25-136) (natural protein)” has a stoichiometry N [2] of 2.
